What all share (settings): protein: recombinant;recombinant;recombinant; tags: N-terminal His (tag cleavage stated for complex);;His6-GST, cleaved by HRV 3C; copies: 1;1;1; label: Alexa 488 on forward strand; blunt
The target in data set [1] is survivin;borealin 10-109;INCENP 1-58 (CPI58) (human;human;human, UniProt O15392;Q53HL2;Q9NQS7 1-142;10-109;1-58, ||). The experiment in a line: MST; up to 200 uM; 100 mM NaCl, 20 mM Tris-HCl pH 7.4, 1 mM DTT, 2 h on ice; MST 0.04 uM duplex, 0.1-200 uM protein; EMSA 0.15 pmol plasmid in 20 ul, 0.8% agarose. (A gel shift assay detects complexes by their altered migration in electrophoresis.)
Sequence of survivin;borealin 10-109;INCENP 1-58 (CPI58) (O15392 whole entry, chain 1 of 3): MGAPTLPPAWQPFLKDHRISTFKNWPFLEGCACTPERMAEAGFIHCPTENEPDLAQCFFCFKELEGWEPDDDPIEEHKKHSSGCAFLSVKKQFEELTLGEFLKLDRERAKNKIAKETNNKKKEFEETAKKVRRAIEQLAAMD
Sequence of survivin;borealin 10-109;INCENP 1-58 (CPI58) (Q53HL2 10-109, chain 2 of 3): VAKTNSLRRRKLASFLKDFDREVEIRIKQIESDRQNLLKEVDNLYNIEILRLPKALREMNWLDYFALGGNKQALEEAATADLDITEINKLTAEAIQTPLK
Sequence of survivin;borealin 10-109;INCENP 1-58 (CPI58) (Q9NQS7 1-58, chain 3 of 3): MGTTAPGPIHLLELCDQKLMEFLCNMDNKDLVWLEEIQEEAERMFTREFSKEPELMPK

Data set [2] addresses survivin;borealin 10-109;INCENP 1-80 RRKKRR (CPI80RRKKRR) (human;human;human, UniProt O15392;Q53HL2;Q9NQS7 1-142;10-109;1-80, ||R65A;R66A;K67A;K68A;R69A;R70A). The description is as above.
Data set [3] deals with survivin;borealin 10-109;INCENP 1-80 T59E (CPI80T59E) (human;human;human, UniProt O15392;Q53HL2;Q9NQS7 1-142;10-109;1-80, ||T59E). Briefly: MST; Kd not calculable per legend; 100 mM NaCl, 20 mM Tris-HCl pH 7.4, 1 mM DTT, 2 h on ice; MST 0.04 uM duplex, 0.1-200 uM protein; EMSA 0.15 pmol plasmid in 20 ul, 0.8% agarose.
Sequence of survivin;borealin 10-109;INCENP 1-80 T59E (CPI80T59E) (O15392 whole entry, chain 1 of 3): as the sequence (O15392 whole entry, chain 1 of 3) above
Sequence of survivin;borealin 10-109;INCENP 1-80 T59E (CPI80T59E) (Q53HL2 10-109, chain 2 of 3): as the sequence (Q53HL2 10-109, chain 2 of 3) above
Sequence of survivin;borealin 10-109;INCENP 1-80 T59E (CPI80T59E) (Q9NQS7 1-80 T59E, chain 3 of 3): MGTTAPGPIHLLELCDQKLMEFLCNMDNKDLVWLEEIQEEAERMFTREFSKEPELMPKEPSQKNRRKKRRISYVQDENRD
Data set [4] has as its target survivin;borealin 10-109;INCENP 1-80 (CPI80) (human;human;human, UniProt O15392;Q53HL2;Q9NQS7 1-142;10-109;1-80, ||). Briefly: MST; 100 mM NaCl, 20 mM Tris-HCl pH 7.4, 1 mM DTT, 2 h on ice; MST 0.04 uM duplex, 0.1-200 uM protein; EMSA 0.15 pmol plasmid in 20 ul, 0.8% agarose.

Sequence of survivin;borealin 10-109;INCENP 1-80 RRKKRR (CPI80RRKKRR) (O15392 whole entry, chain 1 of 3): as the sequence (O15392 whole entry, chain 1 of 3) above
Sequence of survivin;borealin 10-109;INCENP 1-80 RRKKRR (CPI80RRKKRR) (Q53HL2 10-109, stated change not applied, chain 2 of 3): as the sequence (Q53HL2 10-109, chain 2 of 3) above
Sequence of survivin;borealin 10-109;INCENP 1-80 RRKKRR (CPI80RRKKRR) (Q9NQS7 1-80 R65A/R66A/K67A/K68A/R69A/R70A, chain 3 of 3): as the sequence (Q9NQS7 1-80 T59E, chain 3 of 3) above, with E59T, R65A, R66A, K67A, K68A, R69A, R70A counted along it
Sequence of survivin;borealin 10-109;INCENP 1-80 (CPI80) (O15392 whole entry, chain 1 of 3): as the sequence (O15392 whole entry, chain 1 of 3) above
Sequence of survivin;borealin 10-109;INCENP 1-80 (CPI80) (Q53HL2 10-109, chain 2 of 3): as the sequence (Q53HL2 10-109, chain 2 of 3) above
Sequence of survivin;borealin 10-109;INCENP 1-80 (CPI80) (Q9NQS7 1-80, chain 3 of 3): as the sequence (Q9NQS7 1-80 T59E, chain 3 of 3) above, with E59T counted along it

B1: centromeric alpha-satellite consensus 40 bp (dsDNA)
DNA 1: ATTCAACTCACAGAGTTGAACCTTCCTTTTCATAGAGCAG
DNA 2: CTGCTCTATGAAAAGGAAGGTTCAACTCTGTGAGTTGAAT
By Kd is commonly meant the constant that tells how readily two partners part at equilibrium. Take B1: the binding result in data set [1] and in data set [2] was “no binding” in each case. Further, the binding signal in data set [3] was ~2 fold lower affinity than CPI80. Besides, in data set [4], the Kd was 23.6 ± 1.6 µM.

B2: non-alpha-satellite 40 bp (dsDNA)
DNA 1: ATTCCATGGCACCGTCAAGGCTGAGAACGGGAAGCTTGTC
DNA 2: GACAAGCTTCCCGTTCTCAGCCTTGACGGTGCCATGGAAT
For B2, the binding result in data set [1] and in data set [2] was “no binding” each time. Moreover, in data set [3], the binding signal is ~2 fold lower affinity than CPI80. The Kd in data set [4] stood at 29.7 ± 1.6 µM.

The record behind these values is article PMC7337490, “Molecular basis of MKLP2-dependent Aurora B transport from chromatin to the anaphase central spindle”.
